# B1: Endogenous ARNT of mouse kidney (UUO-challenged C57BL/6 mice) (natural protein)
# chain: not shown
# notes: Aryl hydrocarbon receptor nuclear translocator (ARNT), endogenous in kidney tissue of C57BL/6 mice; source: endogenous, total kidney lysate of mice, immunoprecipitated with ARNT antibody
# B2: Endogenous ARNT of mouse tubular epithelial cells (MCT) (natural protein)
# chain: not shown
# notes: Aryl hydrocarbon receptor nuclear translocator (ARNT), endogenous in the murine proximal tubular epithelial cell line MCT; source: endogenous, MCT cell extract, immunoprecipitated with ARNT antibody
# How the values were obtained:
# [1] = biological target: the molecule itself; test: native MS; liquid native MALDI mass spectrometry of endogenous ARNT pulled down from total kidney lysates of LB100-treated UUO mice; eluted in 0.3% TFA, mixed with ammonium acetate buffer (100 mM, pH 9), glycerol
# [2] = biological target: the molecule itself; test: immunoprecipitation and MALDI-TOF mass spectrometry; endogenous ARNT pulled down from extracts of LB100-treated MCT cells with ARNT antibody, eluted with 0.3% TFA, sinapinic acid matrix, linear positive mode
Protein,stoichiometry N [1],stoichiometry N [2]
B1,2,
B2,,2

# From article PMC8674365, “PP2A phosphatase inhibition is anti-fibrotic through Ser77 phosphorylation-mediated ARNT/ARNT homodimer formation” (Scientific Reports, 2021)
